Earlier results on 19 substances are cited in paper PMC4696766.

Targets include histone H3 1-10 (UniProt P61830); di-γH2A.X (Homo sapiens) (UniProt P16104); γH2A.X (Homo sapiens) (UniProt P16104); PIWI (Homo sapiens) (UniProt Q96J94).
Data set [1] has as its target Histone H3 (Homo sapiens) (UniProt P68431).
The target is the same in data set [2]. This is another data set of the same source.
Data set [3] has as its target histone H4 H4K20me2 peptide (UniProt P62805).
For data set [4], the target named is Histone H4 (Homo sapiens) (UniProt P62805).
The target of data set [5] is histone H3 H3K9me3 peptide (UniProt P61830).
For data set [6], the target named is Histone H3 (Homo sapiens) (UniProt P68431). This is another data set of the same source.
In data set [7] the target is histone H3 H3K4me3 peptide (UniProt P61830).
For data set [8], the target named is histone H3 H3K4me2 peptide (UniProt P61830).
In data set [9] the target is histone H3 H3K4me3 peptide (UniProt P61830). The source holds these as a separate data set.
The target in data set [10] is Histone H3 (Homo sapiens) (UniProt P68431). This is another data set of the same source.
For data set [11] the target is unchanged. This is another data set of the same source.
Data set [12] addresses histone H3 H3K9me2 peptide (UniProt P61830).
The target in data set [13] is Histone H3 (Arabidopsis thaliana) (UniProt P59226).
For data set [14], the target named is histone H3 H3K9me3 peptide (UniProt P61830). The source holds these as a separate data set.
Data set [15] deals with Histone H3 (Drosophila melanogaster) (UniProt P02299).
The target of data set [16] is histone H3 H3K4me3 peptide (UniProt P61830). This is another data set of the same source.
Data set [17] deals with histone H4 H4K20me3 peptide (UniProt P62805).
In data set [18] the target is Histone H4 (Homo sapiens) (UniProt P62805). The data set is described as follows: NMR.
Data set [19] has as its target histone H3 H3K9me2 peptide (UniProt P61830). The source holds these as a separate data set.
Data set [20] addresses Histone H3 (Arabidopsis thaliana) (UniProt P59226). This is another data set of the same source.
The target in data set [21] is Histone H3 (Homo sapiens) (UniProt P68431). The source holds these as a separate data set.
Data set [22] shares this target. The source holds these as a separate data set.
For data set [23] the target is unchanged. The source holds these as a separate data set.
The target is the same in data set [24]. The source holds these as a separate data set.

Read-outs that look alike come from different tables or passages of the source.

14-3-3ζ, sequence (P63104 whole entry): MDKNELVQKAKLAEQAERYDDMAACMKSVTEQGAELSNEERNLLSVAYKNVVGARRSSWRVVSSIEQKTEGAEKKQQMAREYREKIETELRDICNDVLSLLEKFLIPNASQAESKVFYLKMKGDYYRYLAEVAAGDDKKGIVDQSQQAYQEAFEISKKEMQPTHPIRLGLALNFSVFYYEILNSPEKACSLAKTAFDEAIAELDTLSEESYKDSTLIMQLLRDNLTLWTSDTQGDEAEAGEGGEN
BHC80 PHD finger, sequence (Q96BD5 whole entry): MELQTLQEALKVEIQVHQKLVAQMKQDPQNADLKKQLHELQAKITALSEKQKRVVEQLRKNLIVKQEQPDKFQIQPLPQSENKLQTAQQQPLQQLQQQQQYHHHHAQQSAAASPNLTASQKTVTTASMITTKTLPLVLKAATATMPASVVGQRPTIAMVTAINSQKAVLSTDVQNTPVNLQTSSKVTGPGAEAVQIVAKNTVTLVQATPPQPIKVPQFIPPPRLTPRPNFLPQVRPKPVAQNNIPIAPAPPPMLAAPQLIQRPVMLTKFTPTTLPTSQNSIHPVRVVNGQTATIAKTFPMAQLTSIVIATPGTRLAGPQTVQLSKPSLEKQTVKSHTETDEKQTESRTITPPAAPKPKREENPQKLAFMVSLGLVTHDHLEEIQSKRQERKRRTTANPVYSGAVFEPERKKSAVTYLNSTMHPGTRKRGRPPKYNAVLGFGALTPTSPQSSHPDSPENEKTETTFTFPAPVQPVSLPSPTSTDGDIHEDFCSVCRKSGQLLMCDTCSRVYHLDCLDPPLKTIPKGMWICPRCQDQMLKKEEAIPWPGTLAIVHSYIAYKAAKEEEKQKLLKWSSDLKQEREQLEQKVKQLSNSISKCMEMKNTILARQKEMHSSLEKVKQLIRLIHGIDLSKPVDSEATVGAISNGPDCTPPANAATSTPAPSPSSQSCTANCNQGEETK
G9a ankyrin repeats, sequence (Q96KQ7 649-879): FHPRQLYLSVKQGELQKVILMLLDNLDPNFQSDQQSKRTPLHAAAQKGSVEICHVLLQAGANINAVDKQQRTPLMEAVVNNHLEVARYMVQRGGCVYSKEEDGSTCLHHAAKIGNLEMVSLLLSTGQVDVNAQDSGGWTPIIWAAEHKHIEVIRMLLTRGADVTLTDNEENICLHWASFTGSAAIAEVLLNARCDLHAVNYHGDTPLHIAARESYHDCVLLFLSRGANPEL
MCPH1 tandem BRCT domains, sequence (Q8NEM0 640-833): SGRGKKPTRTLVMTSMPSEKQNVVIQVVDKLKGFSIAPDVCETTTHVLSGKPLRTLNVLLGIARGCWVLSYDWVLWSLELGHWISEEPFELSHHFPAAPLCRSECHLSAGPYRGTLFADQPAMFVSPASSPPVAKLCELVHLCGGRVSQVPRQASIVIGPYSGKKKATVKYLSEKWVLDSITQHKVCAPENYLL
CHD1 tandem chromodomains, sequence (O14646 272-452): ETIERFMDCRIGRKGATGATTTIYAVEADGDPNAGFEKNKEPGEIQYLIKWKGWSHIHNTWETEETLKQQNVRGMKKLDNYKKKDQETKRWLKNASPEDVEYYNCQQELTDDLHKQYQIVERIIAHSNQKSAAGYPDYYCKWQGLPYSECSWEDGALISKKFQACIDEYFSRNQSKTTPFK
UHRF1 PHD finger, sequence (Q96T88 310-366): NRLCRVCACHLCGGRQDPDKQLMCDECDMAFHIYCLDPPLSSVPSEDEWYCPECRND
JMJD2A tandem Tudor, sequence (O75164 897-1011): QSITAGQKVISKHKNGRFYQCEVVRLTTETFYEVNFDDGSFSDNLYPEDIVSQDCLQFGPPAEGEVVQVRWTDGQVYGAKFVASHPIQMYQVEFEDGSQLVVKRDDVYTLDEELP
HP1 chromodomain, sequence (P05205 24-82): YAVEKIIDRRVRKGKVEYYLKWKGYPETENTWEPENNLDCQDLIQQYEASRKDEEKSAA
UHRF1 tandem Tudor domain, sequence (Q96T88 133-283): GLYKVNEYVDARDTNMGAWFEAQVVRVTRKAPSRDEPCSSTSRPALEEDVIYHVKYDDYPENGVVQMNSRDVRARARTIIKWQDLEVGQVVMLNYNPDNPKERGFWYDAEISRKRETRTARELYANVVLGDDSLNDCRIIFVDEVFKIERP
P/CAF bromodomain, sequence (Q92831 720-830): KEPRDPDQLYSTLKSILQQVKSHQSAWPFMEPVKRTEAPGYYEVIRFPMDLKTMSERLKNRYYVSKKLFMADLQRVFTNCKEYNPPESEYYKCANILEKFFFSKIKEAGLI
SHH1 tandem Tudor domains, sequence (Q9XI47 138-244): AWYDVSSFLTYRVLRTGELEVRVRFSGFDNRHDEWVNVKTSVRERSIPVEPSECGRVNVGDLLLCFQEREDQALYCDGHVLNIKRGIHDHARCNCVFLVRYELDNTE
SHH1 tandem Tudor, sequence (Q9XI47 138-244): as above
DPF3 tandem PHD fingers, sequence (Q92784 259-366): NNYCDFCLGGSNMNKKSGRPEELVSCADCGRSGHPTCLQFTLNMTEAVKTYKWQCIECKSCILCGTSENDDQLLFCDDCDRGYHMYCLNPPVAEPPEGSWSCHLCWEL
53BP1 tandem Tudor domains, sequence (Q12888 1484-1603): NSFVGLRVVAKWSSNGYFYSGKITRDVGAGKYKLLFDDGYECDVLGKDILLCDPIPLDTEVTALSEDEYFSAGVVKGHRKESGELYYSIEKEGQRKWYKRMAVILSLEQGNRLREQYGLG
53BP1 tandem Tudor, sequence (Q12888 1484-1603): as above
UHRF1 tandem Tudor-PHD cassette, sequence (Q96T88 133-366): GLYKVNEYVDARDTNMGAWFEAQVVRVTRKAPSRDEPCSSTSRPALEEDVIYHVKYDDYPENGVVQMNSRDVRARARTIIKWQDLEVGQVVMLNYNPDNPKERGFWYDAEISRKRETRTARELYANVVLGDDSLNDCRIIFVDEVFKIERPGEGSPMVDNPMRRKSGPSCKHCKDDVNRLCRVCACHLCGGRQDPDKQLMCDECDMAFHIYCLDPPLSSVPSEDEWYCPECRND
SND1 extended Tudor domain, sequence (Q7KZF4 650-910): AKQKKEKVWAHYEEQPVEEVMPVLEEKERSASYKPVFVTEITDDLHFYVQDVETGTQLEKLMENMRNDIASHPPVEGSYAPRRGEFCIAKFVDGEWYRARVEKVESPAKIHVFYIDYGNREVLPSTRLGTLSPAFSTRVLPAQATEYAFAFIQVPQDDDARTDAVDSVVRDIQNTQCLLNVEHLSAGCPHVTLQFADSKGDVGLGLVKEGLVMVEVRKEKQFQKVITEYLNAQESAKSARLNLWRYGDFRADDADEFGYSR

As for 14-3-3ζ (from UniProt P63104), the figures for the dissociation constant (Kd) in data set [1] and in data set [2] were 23 µM and 78 µM, respectively.
In the case of “53BP1 tandem Tudor (from UniProt Q12888)”, in data set [3], the Kd was 19.7 µM.
“53BP1 tandem Tudor domains (from UniProt Q12888)”: the Kd in data set [4] was 19.7 µM.
As to ATRX ADD (from UniProt P46100), the dissociation constant Kd in data set [5] is 0.5 µM.
On to BHC80 PHD finger (from UniProt Q96BD5), for which the Kd (with histone H3 1-10; in data set [6]) was 30 µM in each case.
In the case of BPTF PHD finger (from UniProt Q12830), the results for the Kd in data set [7] and in data set [8] were 2.7 µM and 5 µM, respectively.
With “CHD1 tandem chromodomains (from UniProt O14646)”, the equilibrium dissociation constant (Kd) in data set [9] and in data set [10] was 5 µM throughout.
For “DPF3 tandem PHD fingers (from UniProt Q92784)”, in data set [11], the Kd is 0.5 µM.
“G9a ankyrin repeats (from UniProt Q96KQ7)”: the equilibrium dissociation constant (Kd) in [12] and in data set [13] was 6 µM in each case.
HP1 chromodomain (from UniProt P05205): the Kd in data set [14] and in data set [15] was 2.5 µM throughout.
For the substance “JMJD2A tandem Tudor (from UniProt O75164)”, the Kd in data set [16] is 0.5 µM; in [17], 0.4 µM.
Consider “MCPH1 tandem BRCT domains (from UniProt Q8NEM0)”, for which the dissociation constant Kd with di-γH2A.X (Homo sapiens) is 4.4 µM; with γH2A.X (Homo sapiens), 0.7 µM.
As for P/CAF bromodomain (from UniProt Q92831), in data set [18], the Kd was 346 µM.
SHH1 tandem Tudor (from UniProt Q9XI47): in data set [19], the dissociation constant Kd is 1.9 µM.
For the substance “SHH1 tandem Tudor domains (from UniProt Q9XI47)”, the Kd in data set [20] is 1.9 µM.
“SND1 extended Tudor domain (from UniProt Q7KZF4)”: the dissociation constant Kd with PIWI (Homo sapiens) was 10 µM.
For UHRF1 PHD finger (from UniProt Q96T88), the Kd in data set [21] was 2.1 µM; in data set [22] it was 1.47 µM.
Regarding “UHRF1 tandem Tudor domain (from UniProt Q96T88)”, the Kd in [23] was 1.75 µM.
As to “UHRF1 tandem Tudor-PHD cassette (from UniProt Q96T88)”, in [24], the dissociation constant (Kd) is 0.37 µM.
